The target in this experiment is rcan1_mouse Rcan1 (UniProt Q9JHG6).

On to “Fragile X messenger ribonucleoprotein 1 (Mus musculus) (from UniProt P35922) S499A”, for which the “effect of a mutation on the interaction” value is listed as “disrupting interaction”.

Source of the values: IntAct's records for PubMed 22863780.
